Columns and labels:
[1] = molecular target: full-length HA from isolate A/Vietnam/1194/2004 (H5N1TV) expressed on PER.C6 cells (influenza A virus A/Vietnam/1194/2004 (H5N1)) (UniProt Q80A26); experiment: FACS on HA (H5N1TV)-expressing PER.C6 cells, IgG 0.1 µg/ml
[2] = molecular target: full-length HA from isolate A/Vietnam/1194/2004 (H5N1TV) expressed on PER.C6 cells (influenza A virus A/Vietnam/1194/2004 (H5N1)) (UniProt Q80A26); experiment: FACS on HA (H5N1TV)-expressing PER.C6 cells, IgG 10 µg/ml, separate experiment
[3] = molecular target: full-length HA from isolate A/Vietnam/1194/2004 (H5N1TV) expressed on PER.C6 cells (influenza A virus A/Vietnam/1194/2004 (H5N1)) (UniProt Q80A26); experiment: FACS on HA (H5N1TV)-expressing PER.C6 cells, IgG 0.1 µg/ml, separate experiment
[4] = molecular target: full-length HA from isolate A/Vietnam/1194/2004 (H5N1TV) expressed on PER.C6 cells (influenza A virus A/Vietnam/1194/2004 (H5N1)) (UniProt Q80A26); experiment: FACS on HA (H5N1TV)-expressing PER.C6 cells, IgG 1 µg/ml
[5] = molecular target: recombinant HA, subtype H1 (A/New Caledonia/20/99 (H1N1)) (influenza A virus A/New Caledonia/20/99 (H1N1)) (UniProt Q289M7); experiment: ELISA, IgG 5 µg/ml
[6] = molecular target: recombinant HA, subtype H7 (A/Netherlands/219/03 (H7N7)) (influenza A virus A/Netherlands/219/03 (H7N7)); experiment: ELISA, IgG 5 µg/ml
[7] = molecular target: recombinant HA, subtype H5 (A/Vietnam/1203/2004 (H5N1)) (influenza A virus A/Vietnam/1203/2004 (H5N1)) (UniProt Q80A26); experiment: ELISA, IgG 5 µg/ml
[8] = molecular target: recombinant HA, subtype H3 (A/Wyoming/3/2003(H3N2)) (influenza A virus A/Wyoming/3/2003 (H3N2)); experiment: ELISA, IgG 5 µg/ml
[9] = molecular target: recombinant HA, subtype H9 (A/Hong Kong/1073/99 (H9N2)) (influenza A virus A/Hong Kong/1073/99 (H9N2)); experiment: ELISA, IgG 5 µg/ml
[10] = molecular target: full-length HA from isolate A/Vietnam/1194/2004 (H5N1TV) expressed on PER.C6 cells (influenza A virus A/Vietnam/1194/2004 (H5N1)) (UniProt Q80A26); experiment: FACS on HA (H5N1TV)-expressing PER.C6 cells, IgG 10 µg/ml
[11] = molecular target: full-length HA from isolate A/Vietnam/1194/2004 (H5N1TV) expressed on PER.C6 cells (influenza A virus A/Vietnam/1194/2004 (H5N1)) (UniProt Q80A26); experiment: FACS on HA (H5N1TV)-expressing PER.C6 cells, IgG 1 µg/ml, separate experiment

Substance	flow cytometry signal [1]	flow cytometry signal [2]	flow cytometry signal [3]	flow cytometry signal [4]	OD 492nm [5] [OD 492nm]	OD 492nm [6] [OD 492nm]	OD 492nm [7] [OD 492nm]	OD 492nm [8] [OD 492nm]	OD 492nm [9] [OD 492nm]	flow cytometry signal [10]	flow cytometry signal [11]
CR3014 (antibody)	6.21	9.15	10.5	10	0.08	0.17	0.09	0.07	0.16	13.1	7.95
CR6261 (antibody)						0.31	1.44	0.07			

Reference: patent publication EP2450379B1
